PMC12416549 (2024)
Changes are numbered by the printed parent chain. Numbers in names are those of the source. Each block holds one binder with its values, some of them ahead of it.

Target: T1, TNFR1 (Homo sapiens, UniProt P19438)
T1 chain: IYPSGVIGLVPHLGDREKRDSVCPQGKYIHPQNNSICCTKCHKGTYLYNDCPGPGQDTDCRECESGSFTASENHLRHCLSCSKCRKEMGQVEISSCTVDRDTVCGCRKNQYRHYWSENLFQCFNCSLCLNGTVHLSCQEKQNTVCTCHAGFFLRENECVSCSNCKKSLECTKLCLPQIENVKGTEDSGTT
Experiment: yeast display SC50

B1: S53F (designed binder)
chain: MTLQELLREEALRRAEAEAFRYALELLAEKFPEQKEYLLDLAEEIESQIRSLFGVDVEDVRKFLDKEWAWVKELLAEHPAELAEVEAARAARLAELRAEVEAKVAA
apparent Kd (screen): 0.956 nM

B4: S47V (designed binder)
chain: B1 chain with S47V, F53S
apparent Kd (screen): 0.446 nM

B5: K72M (designed binder)
chain: B1 chain with F53S, K72M
apparent Kd (screen): 0.49 nM

B6: R97Y (designed binder)
chain: B1 chain with F53S, R97Y
apparent Kd (screen): 0.49 nM

B7: E73V (designed binder)
chain: B1 chain with F53S, E73V
apparent Kd (screen): 1.05 nM

B8: L82A (designed binder)
chain: B1 chain with F53S, L82A
apparent Kd (screen): 0.869 nM

B9: A88N (designed binder)
chain: B1 chain with F53S, A88N
apparent Kd (screen): 0.718 nM

B10: Q4L (designed binder)
chain: B1 chain with Q4L, F53S
apparent Kd (screen): 0.446 nM

B11: Y37E (designed binder)
chain: B1 chain with Y37E, F53S
apparent Kd (screen): 7.78 nM

B12: A15L (designed binder)
chain: B1 chain with A15L, F53S
apparent Kd (screen): 0.368 nM

B13: Q4P (designed binder)
chain: B1 chain with Q4P, F53S
apparent Kd (screen): 3.3 nM

B16: L7H (designed binder)
chain: B1 chain with L7H, F53S
apparent Kd (screen): 7.07 nM

B17: E36H (designed binder)
chain: B1 chain with E36H, F53S
apparent Kd (screen): 0.49 nM

B18: E29G (designed binder)
chain: B1 chain with E29G, F53S
apparent Kd (screen): 0.49 nM

B19: A23P (designed binder)
chain: B1 chain with A23P, F53S
apparent Kd (screen): 0.718 nM

B20: A98S (designed binder)
chain: B1 chain with F53S, A98S
apparent Kd (screen): 0.653 nM

B21: I49M (designed binder)
chain: B1 chain with I49M, F53S
apparent Kd (screen): 0.869 nM

B24: F31D (designed binder)
chain: B1 chain with F31D, F53S
apparent Kd (screen): 2.25 nM

B25: E36W (designed binder)
chain: B1 chain with E36W, F53S
apparent Kd (screen): 0.539 nM

B28: L27W (designed binder)
chain: B1 chain with L27W, F53S
apparent Kd (screen): 0.956 nM

B29: S53L (designed binder)
chain: B1 chain with F53L
apparent Kd (screen): 2.25 nM

B30: R97Q (designed binder)
chain: B1 chain with F53S, R97Q
apparent Kd (screen): 0.653 nM

B31: E44K (designed binder)
chain: B1 chain with E44K, F53S
apparent Kd (screen): 0.956 nM

B33: Y37P (designed binder)
chain: B1 chain with Y37P, F53S
apparent Kd (screen): 18.3 nM

B34: E95C (designed binder)
chain: B1 chain with F53S, E95C
apparent Kd (screen): 0.49 nM

B36: R8M (designed binder)
chain: B1 chain with R8M, F53S
apparent Kd (screen): 0.49 nM

B39: E29W (designed binder)
chain: B1 chain with E29W, F53S
apparent Kd (screen): 0.653 nM

B40: V100S (designed binder)
chain: B1 chain with F53S, V100S
apparent Kd (screen): 0.49 nM

B41: K72G (designed binder)
chain: B1 chain with F53S, K72G
apparent Kd (screen): 0.653 nM

B46: L27A (designed binder)
chain: B1 chain with L27A, F53S
apparent Kd (screen): 0.593 nM

B48: E73Y (designed binder)
chain: B1 chain with F53S, E73Y
apparent Kd (screen): 0.539 nM

B50: S47P (designed binder)
chain: B1 chain with S47P, F53S
apparent Kd (screen): 3.3 nM

B51: K62I (designed binder)
chain: B1 chain with F53S, K62I
apparent Kd (screen): 0.49 nM

B53: R89H (designed binder)
chain: B1 chain with F53S, R89H
apparent Kd (screen): 0.539 nM

B56: E81F (designed binder)
chain: B1 chain with F53S, E81F
apparent Kd (screen): 0.718 nM

Now from value to binder:

apparent Kd (screen): 1.27 nM
B2: E25D (designed binder)
chain: B1 chain with E25D, F53S

apparent Kd (screen): 0.446 nM
B3: A80P (designed binder)
chain: B1 chain with F53S, A80P

apparent Kd (screen): 0.539 nM
B14: V55G (designed binder)
chain: B1 chain with F53S, V55G

apparent Kd (screen): 7.78 nM
B15: I49K (designed binder)
chain: B1 chain with I49K, F53S

apparent Kd (screen): 0.653 nM
B22: A69Q (designed binder)
chain: B1 chain with F53S, A69Q

apparent Kd (screen): 0.593 nM
B23: M1Y (designed binder)
chain: B1 chain with M1Y, F53S

apparent Kd (screen): 0.956 nM
B26: D65V (designed binder)
chain: B1 chain with F53S, D65V

apparent Kd (screen): 0.956 nM
B27: L64H (designed binder)
chain: B1 chain with F53S, L64H

apparent Kd (screen): 0.79 nM
B32: E43G (designed binder)
chain: B1 chain with E43G, F53S

apparent Kd (screen): 0.956 nM
B35: L82W (designed binder)
chain: B1 chain with F53S, L82W

apparent Kd (screen): 0.539 nM
B37: S47H (designed binder)
chain: B1 chain with S47H, F53S

apparent Kd (screen): 11.4 nM
B38: E67Q (designed binder)
chain: B1 chain with F53S, E67Q

apparent Kd (screen): 0.593 nM
B42: E43R (designed binder)
chain: B1 chain with E43R, F53S

apparent Kd (screen): 0.172 nM
B43: L38V (designed binder)
chain: B1 chain with L38V, F53S

apparent Kd (screen): 0.79 nM
B44: D65Q (designed binder)
chain: B1 chain with F53S, D65Q

apparent Kd (screen): 0.718 nM
B45: K103D (designed binder)
chain: B1 chain with F53S, K103D

apparent Kd (screen): 0.593 nM
B47: L75N (designed binder)
chain: B1 chain with F53S, L75N

apparent Kd (screen): 2.25 nM
B49: I49N (designed binder)
chain: B1 chain with I49N, F53S

apparent Kd (screen): 0.539 nM
B52: I49F (designed binder)
chain: B1 chain with I49F, F53S

apparent Kd (screen): 1.86 nM
B54: E73N (designed binder)
chain: B1 chain with F53S, E73N

apparent Kd (screen): 0.539 nM
B55: M1S (designed binder)
chain: B1 chain with M1S, F53S

apparent Kd (screen): 1.4 nM
B57: A90P (designed binder)
chain: B1 chain with F53S, A90P

apparent Kd (screen): 0.405 nM
B58: L38I (designed binder)
chain: B1 chain with L38I, F53S

apparent Kd (screen): 0.718 nM
B59: A69T (designed binder)
chain: B1 chain with F53S, A69T
